Measurements published in publication PMC6370948, “Complement Dependent and Independent Interaction Between Bovine Conglutinin and Mycobacterium bovis BCG: Implications in Bovine Tuberculosis” (Frontiers in Immunology, 2018).

Target: the molecule itself
Assay: cross-linking; 20 μg/ml purified rfBC with BS3 (5 μl of 1 mM added to 100 μl), room temperature, 0-64 min, stopped with 20 mM Tris-HCl pH 7.5; SDS-PAGE and Coomassie staining

B1: recombinant truncated form of bovine conglutinin (rfBC), composed of the α-helical neck region and the CRD (domain or fragment, bovine (Bos taurus), UniProt P23805 217-371, looked up)
chain: EVNALKQRVTILDGHLRRFQNAFSQYKKAVLFPDGQAVGEKIFKTAGAVKSYSDAEQLCREAKGQLASPRSSAENEAVTQMVRAQEKNAYLSMNDISTEGRFTYPTGEILVYSNWADGEPNNSDEGQPENCVEIFPDGKWNDVPCSKQLLVICEF
notes: bovine conglutinin, neck region (amino acids 197-224) and C-terminal CRD (amino acids 225-351); numbers count on: the mature protein; also called recombinant fragment of conglutinin; recombinant bovine conglutinin
- stoichiometry N: 3
